Consider 1 molecule from patent publication US20140037641A1.

The assay addresses MAb E2-9. Nature of the assay: inhibition ELISA: soluble Fba peptide against plate-coated Fba-MAP for MAb E2-9. For orientation: An ELISA detects its analyte on a solid surface through an enzyme-linked reagent.

Usually IC50 stands for the point on the concentration scale where inhibition reaches its midpoint. A lower IC50 goes with inhibition by little substance.

YGKDVKDLFDYAQE [Fba peptide (…), synthetic 14 mer from Candida albicans fructose-bisphosphate aldolase]: the half-maximal inhibitory concentration (IC50) is 10 µg/mL.
